# Measurements as given in paper PMC4604765, “Eye drop delivery of pigment epithelium-derived factor-34 promotes retinal ganglion cell neuroprotection and axon regeneration” (Molecular and Cellular Neurosciences, 2015).
# Read-outs that look alike come from different tables or passages of the source.
# Columns and labels:
# [1] = rat, in vivo; cited from earlier work
# Source text: Drug administration to the retina and vitreous body is challenging. Drugs applied to the surface of the eye rarely penetrate the ocular surface or enter into the vitreous body and the retina ([Gaudana et al., 2010]). Biological barriers such as the cornea, conjunctiva and the tear film limit penetration and bioavailability of topical drug preparations to the posterior segment of the eye and therefore direct injection of drugs to the vitreous is commonly used to target drugs to the retina ([Ayalasomayajula and Kompella, 2005; Carneiro et al., 2009; Eldaly and Styles, 2009; Yasukawa et al., 2001 ...
# [2] = system: RGC; settings: intravitreal injections, ref Cheng et al., 2002, Kermer et al., 1998, Kurokawa et al., 1999, Monnier et al., 2011, Parrilla-Reverter et al., 2009, cited from earlier work
# Source text: Other commonly used retinal neuron/RGC neuroprotective factors include BDNF, glial-derived neurotrophic factor (GDNF), neurotrophin (NT)-3, NT-4/5, as well as caspase inhibitors ([Cheng et al., 2002; Kermer et al., 1998; Kurokawa et al., 1999; Monnier et al., 2011; Parrilla-Reverter et al., 2009]). Although intravitreal injections of BDNF protect 100% of RGC for 7 days, efficiency declines to 60% by 21 days. Most neuroprotective strategies tested support the survival of a maximum of 60% of RGC at 2 weeks after injury ([Cheng et al., 2002; Kermer et al., 1998; Kurokawa et al., 1999; Monnier et ...
# [3] = system: retinal ganglion cells (RGCs); settings: intravitreal delivery at 0, 7 and 14 days after ONC, equimolar concentrations, 21 days after ONC; ref Vigneswara et al., 2013; cited from earlier work
# Procedure: Here we wished to confirm that, in vivo, PEDF-34 was more neuroprotective than full length PEDF. After intravitreal injection of vehicle + 0 nM PEDF-34, 295 ± 15 FG^+ RGC/mm^2 survived 21 days after ONC + PBS (0 nM PEDF-34) (Fig. 2A and B). Increasing the dose of ...
# [4] = system: βIII-tubulin+ retinal neurons; settings: CNTF 440.5 pM, 4 days in culture
# Source text: For all in vitro experiments, adult 6–8-week-old female Sprague–Dawley rats weighing 170–220 g were used. Culture experiments included retinal cells treated with: (1), Neurobasal-A (NBA) alone (Control); and equimolar concentrations of (2), 2.16; (3) 5.4; (4), 10.8 and (5), 21.6 pM PEDF-34/-44; and (6), ciliary neurotrophic factor (CNTF: Peprotech, London, UK), as a positive control at an optimal neuroprotective/axogenic concentration of 440.5 pM, established by us previously ([Ahmed et al., 2009; Douglas et al., 2009]). […] All experiments were performed in triplicate and repeated on three independent occasions.
# Mixed adult rat retinal cultures containing enriched populations of retinal neurons, including RGCs, were prepared from 6–8-week-old adult female Sprague–Dawley rats, as described previously ([Ahmed et al., 2006b, 2009, 2010; Douglas et al., 2009; Vigneswara et al., 2013]). Briefly, retinal cells were dissociated using a Papain dissociation kit according to the manufacturer's instructions (Worthington Biochemicals, Lakewood, NJ, USA). […]
# The mean number of βIII-tubulin^+ neurons surviving, with neurites and the mean neurite length were quantified as described by us previously ([Vigneswara et al., 2013, 2014]). Briefly, chamber slides were anonymised by a second investigator and βIII-tubulin^+ neuronal soma and neurites quantified in 9 quadrants/well using Axiovision software (Version 4.8; Zeiss) and ImagePro (Version 6.3; Media Cybernetics, Bethesda, MD, USA). Of the 125,000 cells/well plated, the total numbers of neurons in each experiment were determined by βIII-tubulin^+ immunocytochemistry after allowing 30 min for cells to adhere to glass culture slides. […] Neurite outgrowth from at least 180 neurons/condition from the 9 wells was measured, except in control (NBA) cultures, in which a total of 108 neurons were measured.
# [5] = system: RGC axons; settings: administration of CNTF after ONC; ref Vigneswara et al., 2013; cited from earlier work
molecule,measurement,setting,value
^125I-labelled nerve growth factor: 125I-labelled nerve growth factor (26 kDa),time of peak accumulation in the retina and optic nerve,[1],6 h
"BDNF: brain-derived neurotrophic factor (protein, UniProt P23560 19-247, looked up) Neurotrophic factor BDNF …: APMKEANIRGQGGLAYPGVRTHGTLESVNGPKAGSRGLTSLADTFEHVIEELLDEDQKVRPNEENNKDADLYTSRVMLSSQVPLEPPLLFLLEEYKNYLDAANMSMRVRRHSDPARRGELSVCDSISEWVTAADKKTAVDMSGGTVTVLEKVPVSKGQLKQYFYETKCNPMGYTKEGCRGIDKRHWNSQCRTTQSYVRALTMDSKKRIGWRFIRIDTSCVCTLTIKRGR",RGC protected,[2]; 7 days,100%
same,RGC protected,[2]; by 21 days,60%
"full length PEDF: 50 kDa neurotrophic factor, member of the serpin superfamily (protein, UniProt P36955 1-418, looked up, full-length, 50 kDa neurotrophic factor, member of the serpin superfamily) MQALVLLLCIGALLGHSSCQNPASPPEEGSPDPDSTGALVEEEDPFFKVPVNKLAAAVSNFGYDLYRVRSSTSPTTNVLLSPLSVATALSALSLGAEQRTESIIHRALYYDLISSPDIHGTYKELLDTVTAPQKNLKSASRIVFEKKLRIKSSFVAPLEKSYGTRPRVLTGNPRLDLQEINNWVQAQMKGKLARSTKEIPDEISILLLGVAHFKGQWVTKFDSRKTSLEDFYLDEERTVRVPMMSDPKAVLRYGLDSDLSCKIAQLPLTGSMSIIFFLPLKVTQNLTLIEESLTSEFIHDIDRELKTVQAVLTVPKLKLSYEGEVTKSLQEMKLQSLFDSPDFSKITGKPIKLTQVEHRAGFEWNEDGAGTTPSPGLQPAHLTFPLDYHLNQPFIFVLRDTDTGALLFIGKILDPRGP",survival of RGCs from death,[3],55%
"CNTF: ciliary neurotrophic factor (Peprotech), positive control at 440.5 pM (protein, UniProt P26441 1-200, looked up) Ciliary neurotrophic factor: MAFTEHSPLTPHRRDLCSRSIWLARKIRSDLTALTESYVKHQGLNKNINLDSADGMPVASTDQWSELTEAERLQENLQAYRTFHVLLARLLEDQQVHFTPTEGDFHQAIHTLLLQVAAFAYQIEELMILLEYKIPRNEADGMPINVGDGGLFEKKLWGLKVLQELSQWTVRSIHDLRFISSHQTGIPARGSHYIANNKKM",fold increase in βIII-tubulin+ neuron survival compared to untreated cultures,[4],1.9 fold
same,RGC axon regeneration after ONC,[5],limited RGC axon regeneration
